In publication PMC7567884 one finds binding data, which are given here for six sequences.

The series concerns the target T1, His-LexA (Synechocystis sp. PCC 6803) (UniProt P73722).
T1 sequence: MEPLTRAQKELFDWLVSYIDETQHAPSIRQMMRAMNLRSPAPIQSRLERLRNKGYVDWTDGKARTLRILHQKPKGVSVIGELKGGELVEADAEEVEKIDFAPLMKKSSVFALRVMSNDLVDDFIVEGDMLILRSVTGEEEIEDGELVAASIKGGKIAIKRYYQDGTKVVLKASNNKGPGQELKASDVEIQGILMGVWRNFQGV
The experiment in a line: EMSA. The following applies: DIG Gel Shift Kit 2nd generation (Roche), as in Kizawa et al. (ref 9); 6% polyacrylamide gel; buffer, salt, pH and temperature not given. (In general: In EMSA bound probe runs differently from free probe, usually more slowly.)

On to “TAACTCGTCACACCCCATGTGGGCAATGGTATCGTATTCTGCCCAGGTTTCCACCCCTTCAGCCGTTACTCGCAACTCTAGTTCGTGGGCTAGGTTGATAATTGAGGCGGTGATAGTTTTATTCTTGGCGTTTTTGTCAATGTGACGCACAAAGCTTTGATCTATTTTCAGCACATCAAAGGGGAACTGCTGCAGATAAC (double strand) [PggpP]”, for which the binding result is reported as “binds”.
To “GTGGGAAAGTTCCACCTATACCATGCCTTGAAAATTGGTATGGGTCAAATCAGATAGTTCTTTTTGACTACTAATTTTGTTGCTAGCAGCGTTGTCAATCCCATCGCTCTGGTCTGGGATGCAAATGGCAGGAAAATTCTGCTCCCCTTGGGGGAAACGAGTTACGATGGGGGCGACGTTTGCTTTGTTTGCGACATAAT (double strand) [PggtB]” belongs “binds”; to “TGGGATCAAACAACAAGAAAAAATCAATTTACCCTGCCCATGGCAATAGTTTTAAGGTTAACAAAAAAAATAGAATTTACCGCAATCGACGGGTAAATTTCCAGAGGATACCCCCAACTCCAGAAGCAGAAATCTTGCCAGAAAAGCTTTTTCTGTTACTATACTTAACAAGTAACTACTTTTTCC (double strand) [PggpS]”, “binds”.
Next, “TGCAATTTCCTCCTGTCCTCAGGGGACAAACTATATTAAGAAAGTTTACGGGATTATGTTGCCCGGGGAGAATTTGTCCGTGGGGGGTTTACCGACCGATCGCCGGTGAGAAGTACCAGGATAGCTTTATAAAGTTTTGTTACAATGGCAGAAGAAATTCTCAGAAACCCAGCC (double strand) [PnblB]”: “binds”.
To “TTTTTCACAACCTAAGACTTCCTTCCAAAAATCCATAGGGCGGTGGAAGCTTAGCTATTTTTACCATTTTGTTTTGCCACTCAAATATTTACTTAAGGTGAGGTAAAAACTCATCTTTTTTTTACTAAAAATTGCGGCTAGAAATGTAATTTCGGCAATCCCCCCACCTTCTTTCCTGAAAACCGAATCTAACCTGGAAGGGGAAATTTTAAGATAGAACCATTCAAGGGTAATCAATTCCTTCCACACATCAGGAGTTAACATT (double strand) [PhspA]” belongs “binds”; to “TGGGCAGGGTAAATTGATTTTTTCTTGTTGTTTGATCCCATTTTCCAGTCTTTTTGACTTCCATTCAGTCAGGATAATTTTTGCAGTTTTTTTATGGAGTTTTGATAACATTGAGCTTTGCCCCCGGCGATCGCCTAGGGATAAACAATAAACGTGTGAACTAATATGCCTGGATTTATCCCTGGATTGACATTGTTTTTGCC (double strand) [PgghA]”, “binds”.
